Source: PMC4434323

Tests used:
[1] = biological target: pag-3 (F45B8.4) (Caenorhabditis elegans) (UniProt G5EDE1)
[2] = biological target: T1, lsy-27 (F47H4.1) (Caenorhabditis elegans) (UniProt O45526)
T1 sequence: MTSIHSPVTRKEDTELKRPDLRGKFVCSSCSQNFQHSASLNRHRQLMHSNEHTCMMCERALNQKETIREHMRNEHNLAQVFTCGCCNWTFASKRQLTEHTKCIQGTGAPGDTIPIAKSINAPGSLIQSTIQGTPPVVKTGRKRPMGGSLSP

[3] = biological target: T2, ztf-29 (Y66D12A.12) (Caenorhabditis elegans) (UniProt Q95Q03)
T2 sequence: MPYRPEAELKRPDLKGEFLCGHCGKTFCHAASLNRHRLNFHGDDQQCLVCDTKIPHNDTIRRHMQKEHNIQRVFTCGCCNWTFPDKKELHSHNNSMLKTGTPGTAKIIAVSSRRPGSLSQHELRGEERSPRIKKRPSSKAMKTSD

[4] = biological target: T3, ham-2 (C07A12.1) (Caenorhabditis elegans) (UniProt H2KYH4)
T3 sequence: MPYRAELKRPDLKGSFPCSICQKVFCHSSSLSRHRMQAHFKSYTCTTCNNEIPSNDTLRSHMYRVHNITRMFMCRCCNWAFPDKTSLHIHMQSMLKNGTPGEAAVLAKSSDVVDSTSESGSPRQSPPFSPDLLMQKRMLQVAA

[5] = biological target: T4, F52B5.7 (F52B5.7) (Caenorhabditis elegans) (UniProt Q7YWZ7)
T4 sequence: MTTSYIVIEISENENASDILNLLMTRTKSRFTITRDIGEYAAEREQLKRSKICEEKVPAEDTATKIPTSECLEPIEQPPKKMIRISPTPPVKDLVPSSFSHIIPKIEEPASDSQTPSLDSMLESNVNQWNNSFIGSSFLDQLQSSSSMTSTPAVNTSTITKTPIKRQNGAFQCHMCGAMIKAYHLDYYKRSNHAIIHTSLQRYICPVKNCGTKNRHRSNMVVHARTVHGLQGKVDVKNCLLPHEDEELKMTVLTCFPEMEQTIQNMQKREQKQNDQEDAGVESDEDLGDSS

[6] = biological target: T5, Y44A6D.3 (Y44A6D.3) (Caenorhabditis elegans) (UniProt Q9XXE0)
T5 sequence: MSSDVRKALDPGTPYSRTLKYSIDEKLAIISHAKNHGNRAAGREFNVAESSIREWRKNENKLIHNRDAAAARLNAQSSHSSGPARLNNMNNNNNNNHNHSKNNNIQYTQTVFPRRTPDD

[7] = biological target: T6, lsl-1 (F52F12.4) (Caenorhabditis elegans) (UniProt O02273)
T6 sequence: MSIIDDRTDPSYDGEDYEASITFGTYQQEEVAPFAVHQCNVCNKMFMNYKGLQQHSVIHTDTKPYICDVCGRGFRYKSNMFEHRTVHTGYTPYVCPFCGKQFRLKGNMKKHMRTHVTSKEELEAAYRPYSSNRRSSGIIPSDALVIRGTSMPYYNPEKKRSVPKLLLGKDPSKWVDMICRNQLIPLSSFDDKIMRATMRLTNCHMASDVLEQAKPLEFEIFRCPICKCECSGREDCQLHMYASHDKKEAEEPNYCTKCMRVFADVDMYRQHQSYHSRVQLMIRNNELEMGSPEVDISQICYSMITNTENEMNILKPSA

[8] = biological target: T7, che-1 (C55B7.12) (Caenorhabditis elegans) (UniProt Q966L8)
T7 sequence: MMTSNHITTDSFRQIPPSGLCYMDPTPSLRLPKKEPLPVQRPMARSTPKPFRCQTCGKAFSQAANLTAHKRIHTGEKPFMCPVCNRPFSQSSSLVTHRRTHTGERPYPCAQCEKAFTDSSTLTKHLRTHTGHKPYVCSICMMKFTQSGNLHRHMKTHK

[9] = biological target: lin-48 (F34D10.5) (Caenorhabditis elegans) (UniProt G5EDU6)
Chain of lin-48 (F34D10.5) (Caenorhabditis elegans) (G5EDU6 83-280): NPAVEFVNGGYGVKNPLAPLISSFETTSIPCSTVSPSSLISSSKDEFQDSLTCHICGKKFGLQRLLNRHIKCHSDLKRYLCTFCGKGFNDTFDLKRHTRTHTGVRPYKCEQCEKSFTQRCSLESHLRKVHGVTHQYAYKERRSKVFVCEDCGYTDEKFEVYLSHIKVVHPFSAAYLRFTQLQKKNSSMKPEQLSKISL

Chain of pag-3 (F45B8.4) (Caenorhabditis elegans) (G5EDE1 76-311): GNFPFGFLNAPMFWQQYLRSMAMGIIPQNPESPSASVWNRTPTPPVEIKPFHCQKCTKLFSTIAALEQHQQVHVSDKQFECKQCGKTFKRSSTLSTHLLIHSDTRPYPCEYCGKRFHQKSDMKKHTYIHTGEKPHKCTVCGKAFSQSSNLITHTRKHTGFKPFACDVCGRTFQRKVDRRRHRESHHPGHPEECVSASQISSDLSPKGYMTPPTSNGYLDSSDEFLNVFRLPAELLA

AAAATCTG (double strand) [8-mer AAAATCTG]
binding signal (PBM E-score (-0.5 to 0.5)) [1]: 0.491

AAAGCTTC (double strand) [8-mer AAAGCTTC]
binding signal (PBM E-score (-0.5 to 0.5)) [2]: 0.492 | binding signal (PBM E-score (-0.5 to 0.5)) [3]: 0.486

AAAGCTTT (double strand) [8-mer AAAGCTTT]
binding signal (PBM E-score (-0.5 to 0.5)) [4]: 0.478 | binding signal (PBM E-score (-0.5 to 0.5)) [2]: 0.491 | binding signal (PBM E-score (-0.5 to 0.5)) [3]: 0.496

AAATCACA (double strand) [8-mer AAATCACA]
binding signal (PBM E-score (-0.5 to 0.5)) [1]: 0.49

AAATCACG (double strand) [8-mer AAATCACG]
binding signal (PBM E-score (-0.5 to 0.5)) [1]: 0.492

AAATCTCA (double strand) [8-mer AAATCTCA]
binding signal (PBM E-score (-0.5 to 0.5)) [1]: 0.487

AAATCTGA (double strand) [8-mer AAATCTGA]
binding signal (PBM E-score (-0.5 to 0.5)) [1]: 0.486

AAATCTGG (double strand) [8-mer AAATCTGG]
binding signal (PBM E-score (-0.5 to 0.5)) [1]: 0.493

AAATCTGT (double strand) [8-mer AAATCTGT]
binding signal (PBM E-score (-0.5 to 0.5)) [1]: 0.49

AAGCTTAA (double strand) [8-mer AAGCTTAA]
binding signal (PBM E-score (-0.5 to 0.5)) [4]: 0.493 | binding signal (PBM E-score (-0.5 to 0.5)) [2]: 0.493 | binding signal (PBM E-score (-0.5 to 0.5)) [3]: 0.494

AAGCTTCA (double strand) [8-mer AAGCTTCA]
binding signal (PBM E-score (-0.5 to 0.5)) [2]: 0.497 | binding signal (PBM E-score (-0.5 to 0.5)) [3]: 0.489

AAGCTTCT (double strand) [8-mer AAGCTTCT]
binding signal (PBM E-score (-0.5 to 0.5)) [2]: 0.496 | binding signal (PBM E-score (-0.5 to 0.5)) [3]: 0.49

AAGCTTTA (double strand) [8-mer AAGCTTTA]
binding signal (PBM E-score (-0.5 to 0.5)) [4]: 0.482 | binding signal (PBM E-score (-0.5 to 0.5)) [2]: 0.49 | binding signal (PBM E-score (-0.5 to 0.5)) [3]: 0.494

AATCACAG (double strand) [8-mer AATCACAG]
binding signal (PBM E-score (-0.5 to 0.5)) [1]: 0.491

AATCACTG (double strand) [8-mer AATCACTG]
binding signal (PBM E-score (-0.5 to 0.5)) [1]: 0.49

AATCAGTG (double strand) [8-mer AATCAGTG]
binding signal (PBM E-score (-0.5 to 0.5)) [1]: 0.491

AATCTCAG (double strand) [8-mer AATCTCAG]
binding signal (PBM E-score (-0.5 to 0.5)) [1]: 0.49

AATCTGTG (double strand) [8-mer AATCTGTG]
binding signal (PBM E-score (-0.5 to 0.5)) [1]: 0.487

ACCCATGG (double strand) [8-mer ACCCATGG]
binding signal (PBM E-score (-0.5 to 0.5)) [5]: 0.485

ACCCCATA (double strand) [8-mer ACCCCATA]
binding signal (PBM E-score (-0.5 to 0.5)) [5]: 0.496

ACCCCATG (double strand) [8-mer ACCCCATG]
binding signal (PBM E-score (-0.5 to 0.5)) [5]: 0.486

ACCGCGCA (double strand) [8-mer ACCGCGCA]
binding signal (PBM E-score (-0.5 to 0.5)) [6]: 0.495

ACTGCGCA (double strand) [8-mer ACTGCGCA]
binding signal (PBM E-score (-0.5 to 0.5)) [6]: 0.498

AGCTTCAC (double strand) [8-mer AGCTTCAC]
binding signal (PBM E-score (-0.5 to 0.5)) [2]: 0.493

AGCTTCAG (double strand) [8-mer AGCTTCAG]
binding signal (PBM E-score (-0.5 to 0.5)) [2]: 0.491

AGCTTCAT (double strand) [8-mer AGCTTCAT]
binding signal (PBM E-score (-0.5 to 0.5)) [2]: 0.494

AGCTTCTG (double strand) [8-mer AGCTTCTG]
binding signal (PBM E-score (-0.5 to 0.5)) [2]: 0.491

ATACCGTA (double strand) [8-mer ATACCGTA]
binding signal (PBM E-score (-0.5 to 0.5)) [7]: 0.492

ATACGGTA (double strand) [8-mer ATACGGTA]
binding signal (PBM E-score (-0.5 to 0.5)) [7]: 0.495

ATGCGCAG (double strand) [8-mer ATGCGCAG]
binding signal (PBM E-score (-0.5 to 0.5)) [6]: 0.493

ATGCGCGG (double strand) [8-mer ATGCGCGG]
binding signal (PBM E-score (-0.5 to 0.5)) [6]: 0.494

ATGGATAC (double strand) [8-mer ATGGATAC]
binding signal (PBM E-score (-0.5 to 0.5)) [5]: 0.485

ATGGGGTA (double strand) [8-mer ATGGGGTA]
binding signal (PBM E-score (-0.5 to 0.5)) [5]: 0.488

ATGGGTAC (double strand) [8-mer ATGGGTAC]
binding signal (PBM E-score (-0.5 to 0.5)) [5]: 0.488

CAAATCAC (double strand) [8-mer CAAATCAC]
binding signal (PBM E-score (-0.5 to 0.5)) [1]: 0.487

CAAATCTG (double strand) [8-mer CAAATCTG]
binding signal (PBM E-score (-0.5 to 0.5)) [1]: 0.489

CAGATTTA (double strand) [8-mer CAGATTTA]
binding signal (PBM E-score (-0.5 to 0.5)) [1]: 0.489

CCATGGGG (double strand) [8-mer CCATGGGG]
binding signal (PBM E-score (-0.5 to 0.5)) [5]: 0.482

CCCATGGG (double strand) [8-mer CCCATGGG]
binding signal (PBM E-score (-0.5 to 0.5)) [5]: 0.485

CCCCATAA (double strand) [8-mer CCCCATAA]
binding signal (PBM E-score (-0.5 to 0.5)) [5]: 0.495

CCCCATAG (double strand) [8-mer CCCCATAG]
binding signal (PBM E-score (-0.5 to 0.5)) [5]: 0.492

CCCCATGA (double strand) [8-mer CCCCATGA]
binding signal (PBM E-score (-0.5 to 0.5)) [5]: 0.495

CCCCCATA (double strand) [8-mer CCCCCATA]
binding signal (PBM E-score (-0.5 to 0.5)) [5]: 0.485

CCGCGCAC (double strand) [8-mer CCGCGCAC]
binding signal (PBM E-score (-0.5 to 0.5)) [6]: 0.496

CCGCGCAG (double strand) [8-mer CCGCGCAG]
binding signal (PBM E-score (-0.5 to 0.5)) [6]: 0.495

CCTGCGCA (double strand) [8-mer CCTGCGCA]
binding signal (PBM E-score (-0.5 to 0.5)) [6]: 0.493

CTACCGTA (double strand) [8-mer CTACCGTA]
binding signal (PBM E-score (-0.5 to 0.5)) [7]: 0.498

CTACGGTA (double strand) [8-mer CTACGGTA]
binding signal (PBM E-score (-0.5 to 0.5)) [7]: 0.491

CTACTGTA (double strand) [8-mer CTACTGTA]
binding signal (PBM E-score (-0.5 to 0.5)) [7]: 0.491

CTGCGCAA (double strand) [8-mer CTGCGCAA]
binding signal (PBM E-score (-0.5 to 0.5)) [6]: 0.495

CTGCGCAG (double strand) [8-mer CTGCGCAG]
binding signal (PBM E-score (-0.5 to 0.5)) [6]: 0.496

GAAGCTTA (double strand) [8-mer GAAGCTTA]
binding signal (PBM E-score (-0.5 to 0.5)) [4]: 0.482 | binding signal (PBM E-score (-0.5 to 0.5)) [2]: 0.493 | binding signal (PBM E-score (-0.5 to 0.5)) [3]: 0.485

GAAGCTTC (double strand) [8-mer GAAGCTTC]
binding signal (PBM E-score (-0.5 to 0.5)) [2]: 0.496 | binding signal (PBM E-score (-0.5 to 0.5)) [3]: 0.494

GCCCCATA (double strand) [8-mer GCCCCATA]
binding signal (PBM E-score (-0.5 to 0.5)) [5]: 0.487

GCCGCGCA (double strand) [8-mer GCCGCGCA]
binding signal (PBM E-score (-0.5 to 0.5)) [6]: 0.494

GCTGCGCA (double strand) [8-mer GCTGCGCA]
binding signal (PBM E-score (-0.5 to 0.5)) [6]: 0.494

GCTTAAGC (double strand) [8-mer GCTTAAGC]
binding signal (PBM E-score (-0.5 to 0.5)) [4]: 0.493 | binding signal (PBM E-score (-0.5 to 0.5)) [2]: 0.494 | binding signal (PBM E-score (-0.5 to 0.5)) [3]: 0.491

GCTTCACC (double strand) [8-mer GCTTCACC]
binding signal (PBM E-score (-0.5 to 0.5)) [2]: 0.491

GGCTTCAC (double strand) [8-mer GGCTTCAC]
binding signal (PBM E-score (-0.5 to 0.5)) [2]: 0.49 | binding signal (PBM E-score (-0.5 to 0.5)) [8]: 0.492

GGTGCGCA (double strand) [8-mer GGTGCGCA]
binding signal (PBM E-score (-0.5 to 0.5)) [6]: 0.493

GTAACGGA (double strand) [8-mer GTAACGGA]
binding signal (PBM E-score (-0.5 to 0.5)) [9]: 0.485

GTACCATA (double strand) [8-mer GTACCATA]
binding signal (PBM E-score (-0.5 to 0.5)) [5]: 0.487

GTCCGTTA (double strand) [8-mer GTCCGTTA]
binding signal (PBM E-score (-0.5 to 0.5)) [9]: 0.487

TAACGGGA (double strand) [8-mer TAACGGGA]
binding signal (PBM E-score (-0.5 to 0.5)) [9]: 0.49

TAACGGTA (double strand) [8-mer TAACGGTA]
binding signal (PBM E-score (-0.5 to 0.5)) [9]: 0.494

TACCCATA (double strand) [8-mer TACCCATA]
binding signal (PBM E-score (-0.5 to 0.5)) [5]: 0.485

TACCGTAA (double strand) [8-mer TACCGTAA]
binding signal (PBM E-score (-0.5 to 0.5)) [7]: 0.493

TACGGTAA (double strand) [8-mer TACGGTAA]
binding signal (PBM E-score (-0.5 to 0.5)) [7]: 0.492

TCCGCGCA (double strand) [8-mer TCCGCGCA]
binding signal (PBM E-score (-0.5 to 0.5)) [6]: 0.495
